# Experimental data reported in the DeepSol protein solubility set.
# Test: soluble on expression in E. coli; label from the status in PepcDB or PDB records
row,Sequence,soluble on expression in E. coli
1,MTIGTLPFDQETIRQRASEVNEAAWLTEFRLQALAQATELPMPTPDKTKIDKWDFIGKGDAAKQEPVSSLTELPEAVKNLIDENNSVLVQRTGTTAFVSLADEAKEKGVIFTDIVTAATEHAELVQKYLMKDGVKVDEHRLTALHAALINGGAFVYVPKNVVLETPLQAVFLVDGEEANVYNHVLFVADANSTATYVENYVANENAKGIANIVAEVIVEQGAQVKFGAVDLLAKDVTTYVNRRGVVGRDGRIDWALGLMNDGNTISENVTNLMGDGSYADTKTVTIGRGNQTQNFTTKVVHFGKHSEGWILKHGVQKDSATSIFNGIGKIEHGASKSNAQQSSRVLMLDEKARGDANPILLIDEDDVMAGHAASVGRVDPVQLYYLMSRGIPKREAERLVIHGFLAPVVNELPIEGVKAQLVEVIERKVR,not soluble
2,MTIHIYNTLTRQKEEFTPLEENKVKMYVCGPTVYNYIHIGNARPPMVFDTVRRYLEYKGYDVQYVSNFTDVDDKLIKAANELGEDVPTIADRFVEAYFEDVTALGCKHATVHPRVTENMDIIIEFIQELVNKGYAYESEGDVYFRTKEFEGYGKLSHQPIADLRHGARIEVGEKKQDPLDFALWKAAKEGEIFWESPWGQGRPGWHIECSAMARKYLGDTIDIHAGGQDLAFPHHENEIAQSEALTGKTFARYWMHNGYININNEKMSKSLGNFILVHDIIKQYDPQLIRFFMLSVHYRHPINFSEELLQSTNNGLERIKTAYGNLKHRMESSTDLTDHNEKWLADLEKFQTAFEEAMNDDFNTANAITELYNVANHANQYLLEEHTSTVVIEAYVKQLETLFDILGLELAQEELLDEEIEALIQKRIEARKNRDFALSDQIRDDLKDRNIILEDTAQGTRWKRG,soluble
3,MTIPTSYLNHTDAEAARKARATYRDGLVAPTSGIAPGFTQANMIVLPRDWAFDFLLYAQRNPKPCPVLDVSDPGSPTTLLAPGADLRTDLPLYRIWRDGKLAEETADATSAWAERDDLVAFLIGCSFTFETPMVEAGIEIRHMTDKSNVPMYLTNRPCRPAGRLKGNMVVSMRPIPASRVADAATISGRFPAVHGAPVHVGAPEQIGISDLSKPDFGDAVRIEPGEVPVFWACGVTPQAAVMASGVPFAITHAPGHMFITDIPDTAYHALEHHHHHH,soluble
4,MTISEVSKKYELSADTLRYYERIGLIPPVNRNKSGIRSFTEEDCEWVNFIKCMRGAGLSIETLIEYVAMFQQGSSTIKARKELLIEQRNQLAKRIEEMQKTLERLNFKIDRYEEGIIEKEKVLKSSRNKKMEAVSYE,not soluble
5,MTISTTSTPHDAVFKSFLRHPDTARNFINIHLPAPLRKLCDLTTLKLEPNSFIDEDLRQYYSDLLWSVKTQEGVGYIYVVIEHQSKPEELMAFRMMRYSIAAMQNHLDAGYKELPLVIPMLFYHGCRSPYPYSLCWLDEFAEPAIARKIYSSAFPLVDITVVPDDEIMQHRKMALLELIQKHIRQRDLLGLVDQIVSLLVTGNTNDRQLKALFNYVLQTGDAQRFRAFIGEITERAPQEKEKLMTIADRLREEGAMQGKHEEALRIAQEMLDRGLDRELVMMVTRLSPDDLIAQSH,not soluble
6,MTIYFLFGKTGSGKSYIGELLRQLSIVHIDGDNHITQKMRDCLIEDEQMTPEMIDEFVDVLIDVIKTQKTKTPNESFVISQAMYLDKHRLKLLNAIPELEFVMIDVIPVLRASRITNRFRNQESKVSLRYATRMDAFFEYPSHETIRLENNQSSDETLIEQIREKMPALFNMESKEELNSGIQLQFALEHHHHHH,soluble
7,MTKEEMRNAILDIFQSNPQSVMNYKQVSHLMGVEAAPQKLMVNSLMEDMAVDDILHEIERGRYRYNALGLIVIGTFERRFNGRNSFIPEGGGTPIFIAERNSAHAMDGDKVKVQLFAKRRGRAPEAAVIEIIEQKQATFVGKIQINRDFAFLVTEDRTLANDIFIPKDNLGNAKNGDKVIVRILEWPEQSKNPIGEVQAVLGPAGDNDAEMNAILAEFGLPYVYPQEVEEAADRLDGKITEEELARREDFRSILTFTIDPKDAKDFDDAISFRPLEDDCYEVGVHIADVSHYVTEGGIIDQEAYNRATSIYLVDRTIPMLPERLCNDLCSLRPDEEKYAYSCIFRMNDEAKVLDYRICHSVIKSDRRFAYEEAQAVIETGEGDCKEAILKLNELAQRLRKERFQNGAIAFERKEVRFEIDEKGRPLGVIVKESKEANKLIEEFMLLANRTVARHIGEETQGKRAKTFVYRIHDLPDPDKLETLSDFIRRFGYKLRTTGSNVEVSKSINSLLDNIQNKPEENLISTVAIRSMAKAIYSTDNIGHYGLAFDFYTHFTSPIRRYPDLMVHRLLTKYLSGGSSVDKNDYEEKCKHSSAMEQLAASAERASIKYKQVEFMSEHLGKVFDGVISGVTEWGLYVELKENMCEGLIPIRCLDDDYYEYDDKNFCLIGRRYRHRYSLGDAITVRVAQANLDRKQLDFEPVS,not soluble
8,MTKGSPGDTPDKASDRAARGASDASDASDAWRRWHEQRVATVSAPYGPLALTGTHWLEDHPDGQLPDIPGRWTTDGDAVLLTAGRADGLTVDGRLLDGEARLTADRGPVGAARVARGERRLVVLVREGLWGVRDFDPAAPARRAFRGIAATPYDPRWSVPGRFTPYDTGRRSVRVPNADGRERGLALGGELAFELDGRAHTLQVGVEDDGSLWAVFADATSGSTSYRFRFLRPAAPDAEGRTTVDLNRALLPPCAFADHFVCPFPPPGNTLGARVEAGERELRLEHHHHHH,soluble
9,MTKIFAYAIREDEKPFLKEWEDAHKDVEVEYTDKLLTPETVALAKGADGVVVYQQLDYIAETLQALADNGITKMSLRNVGVDNIDMAKAKELGFQITNVPVYSPNAIAEHAAIQAARILRQDKAMDEKVARHDLRWAPTIGREVRDQVVGVVGTGHIGQVFMQIMEGFGAKVITYDIFRNPELEKKGYYVDSLDDLYKQADVISLHVPDVPANVHMINDESIAKMKQDVVIVNVSRGPLVDTDAVIRGLDSGKIFGYAMDVYEGEVGIFNEDWEGKEFPDARLADLIARPNVLVTPHTAFYTTHAVRNMVVKAFDNNLELVEGKEAETPVKVG,soluble
10,MTKKIVLAGGTGFIGQYLQQRFEENGDEVVIISRRAPHVSWDDSEAVREALEGADMLVNLAGKSVNCRYNEQNKKAILQSRIDTTNILGEAVLACERPPKLWLNSSTATIYRHAEDRAMTEANGELGSGFSENVAKAWEEEFFSFQLPNTRQAALRISIVLGGDGGALTPYRYLTKFGLGGKQGSGKQMVSWIHVEDVFRVIRFIEEQEALEGVINCTSPQPVSNKVLTTAIRRAMNVKVGLPATAWMLEIGTFLLRTESELILKSRWVLPERLLQAGFTFQYETIDDALSEILVQSKSASHLLEHHHHHH,not soluble
11,MTKKYDLHCHSTASDGVLSPTELVHRAYAQGVNVLALCDHDTIAGIDEAEIAAKEVGIELITGVEISTNWEGRGIHIVGLNFDKTHPKMTALLQSQKALREKRAVEIGDKLEKAGIPNAYDGAKALADGEVTRAHYARYLVQIGKVSNDGQAFKRYLGQGKSAFVKAEWADIPTAIETIHAAGGIAIIAHPLRYNMTGKWVRKLIVDFKAWGGDGMEMADCGQTKDQRQMLARWAKEFDLQGSVGSDFHFPCGWIELGKNLDLVDSVIPVWEKFLEHHHHHH,soluble
12,MTKLGYVMTKSSAKNFKIYINGSAKGFKNIIISGAKAWNPSPYLNTVSIGNDVRPNYTVSSSGTNKGSVLAVCNTTYYKSNKLISKNEITLYKGFRSLSTNHKIETIVHEFGHGFGLGHVKTKNAIMLDKGFINKTKPQTDDFNGIKALYKLEHHHHHH,soluble
13,MTKSETTLSKLLVESELVQECEELLSSLPRDRSVFAEYLYQYQGFWYPPNLLEGVLYSQKHFQARDSDIVLASIPKSGTTWLKSLVFALIHRQEFQTPLVSHPLLDNNPHTLVTFIEGFHLHTQDTSPRIFSTHIPVGSLPESVKDSSCKVVYCCRNPKDAFVSLWHFMKNLIVKEMVGCTMEEMVRFFCRGSSIYGPFWDHVLQYWKESRENPKKVMFVMYEEMREQPQEWVMRIAEFLGYSFTEEEIENGVLEDIIKLCSLENLSKLEVNEKGKLLNGMETKAFFRKGEIGGWRDTLTPLLAEEIDKTTKEKLIGSDFRFFC,soluble
14,MTKTEPNNAQLDWLESESIHIIREVAAECENPALLFSGGKDSVVLLALACKAFRLGSRPVKLPFPLVHIDTGHNYPEVIAFRDAQAAKLNARLIVGRVEDSIAKGTVVLRKETDSRNAAQAVTLLETIEANGFDALMGGARRDEEKARAKERIFSFRDEFGQWDPKAQRPELWSLYNTRLHKGENMRVFPISNWTELDIWQYIARENLELPPIYYSHRREVVRRRGLLVPVTPLTPKMPSETSEILDVRFRTVGDISCTCPVESTASTPTEIIRETAVADISERSATRLDDQASEAAMEKRKKEGYF,not soluble
